Measured values published in patent US20210340232A1, “MONOCLONAL ANTIBODIES AGAINST HUMAN DICKKOPF3 AND USES THEREOF” (Board of Regents, The University of Texas System, priority 2018, published 2021).

What was measured:
Panc1 cells = assay: Panc1 cell migration and invasion after rhDKK3; format: cell-based, human; details: Panc1, 10 μg/mL, 24 hours
Protocol: FIGS. 2A-J. DKK3 stimulates HPSC and PDAC activity and increases chemoresistance. (FIG. 2A) HPSC proliferation was measured by MTT after treatment with PBS or rhDKK3 (10 μg/ml). DKK3 was silenced in HPSCs by shDKK3 (FIG. 2B) and cell proliferation was measured by MTT assay (FIG. 2B) and migration was determined at 24 hours (FIG. 2C). Control cells were transfected with scrambled shRNA. (FIG. 2D) Panc1 cells were treated with rhDKK3 (10 μg/ml) or serum-free media control, and cell migration and invasion were measured after 24 hours. (FIGS. 2E-F) Panc1 cells were stably silenced for DKK3 and cell proliferation (FIG. 2E) and colony formation in soft agar (FIG. 2F) were measured. (FIG. 2G) BxPC3 cell migration was measured after treatment with CM from HPSCs or HPSCs silenced for DKK3. Soft agar colony formation (FIG. 2H) in gemcitabine and apoptosis (FIG. 2I) was determined in chemosensitive L3.6p1 cells expressing DKK3 compared with transfection controls. (FIG. 2J) Gemcitabine-induced apoptosis was measured in chemoresistant HS766T cells silenced for DKK3. *p<0.01, **p<0.001, ***p<0.0001, ****p<0.00001.
(§1) Cell-based assays. Cell proliferation was measured by the MTS assay (Promega, Madison, Wis.). […]

CD3+ T cells = assay: T cell division assay (CFSE); format: cell-based, human; details: stimulated CD3+ T cells, DKK3 5-10 μg/mL
Protocol: FIGS. 6A-F. DKK3 blockade is associated with increased tumor immune infiltrates and improves response to checkpoint inhibitor therapy. (FIG. 6A) T cells were stimulated, treated with DKK3 (5-10 μg/mL) and proliferation was measured by CFSE assay. In a syngeneic orthotopic model with luciferase-labeled KPC cells, tumors were examined for CD3 and CD8 expression by IHC (FIG. 6B) and additional markers of T cell activity were measured by quantitative PCR (FIG. 6C). Mice in this model were treated with either control IgG, DKK3 mAb JM6-6-1, αCTLA4 or the combination JM6-6-1+αCTLA4 and tumor growth was measured by IVIS imaging to 25 and 190 days (FIG. 6D). Survival in this orthotopic implantation model is shown in (FIG. 6E). Using a GEMM (FIG. 6F), KPC/DKK3^+/+ (black line) or KPC/DKK3^−/− (blue line) mice were treated with αCTLA4 or control IgG and the Kaplan Meier survival curve is shown. *p<0.05, **p<0.01, ***p<0.001.
T cell division assay. Peripheral blood mononuclear cells (PBMC) were obtained from buffy coat by density centrifugation using Histopaque 1077 (Sigma) and CD3^+ T-cells were isolated using a pan T-cell isolation kit (Miltenyi Biotec). […] DKK3 or HPSC-CM was added and after 96 hours, cells were stained for CD3, CD4, and CD8 to define lineage and analyzed by flow cytometry. […]

NF-κB = NF-κB luciferase reporter assay in Panc28; format: cell-based, human; details: parental Panc28 cells
Protocol: FIGS. 3A-F. NF-κB is activated in PSCs and PDAC cells by DKK3 and is necessary for DKK3-mediated stimulation of cell activity. (FIG. 3A) Phosphorylation of p65 and IκBα induced by DKK3 treatment (10 μg/ml) was determined by Western blotting. Relative protein loading was shown by using anti-β-actin antibody. (FIG. 3B) Time course of p65 activation by WB in HPSC and Panc1 cells. Cells were treated with recombinant DKK3 (10 μg/ml) for 0-24 h and change in band density relative to baseline were quantified. (FIG. 3C) DKK3 stimulates NFκB luciferase reporter in HPSC & PDAC cells, with mutant luc reporter (MT). NFκB activity induced by DKK3 was measured in Panc28 with phosphorylation-defective IκBαM by luciferase reporter (FIG. 3D) and Western blotting (FIG. 3E). For FIGS. 3C&D, in each set of three columns, the left is “PBS,” the middle is “DKK3,” and the right is “TNFα.” (FIG. 3F) Proliferation of Panc28 and Panc28/IκBαM was measured by MTT assay. *p<0.05, **p<0.01, ***p<0.001 and ****p<0.0001 vs. PBS control.
NF-κB activity. NF-κB activity was determined by using a luciferase reporter assay. […] Luciferase signal was detected by using D-luciferin firefly potassium salt (Caliper Life Sciences, Hopkinton, Mass.) and the IVIS® imaging system (Xenogen Corp., Alameda, Calif.). […]

recombinant human DKK3 = molecular target: T1, recombinant human DKK3 (human, UniProt Q9UBP4 22-350); assay: non-denaturing Western blot of recombinant protein
T1 construct: Bought recombinant protein (R&D); also called rhDKK3; recombinant human DKK-3/His

recombinant mouse DKK3 = molecular target: T2, recombinant mouse DKK3 (mouse, UniProt Q9QUN9 23-349, limits assumed); assay: non-denaturing Western blot of recombinant protein
T2 construct: also called murine DKK3

BxPC3 cells [1] = assay: BxPC3 Transwell migration in response to rhDKK3; format: cell-based, human; details: BxPC3, rhDKK3 10 μg/ml, 48 hours
Protocol: (§2) HPSCs and BxPC3 cells were treated with DKK3 mAb clones JM6-6-1 and JM8-12-1 or isotype control mAb or PBS. (FIGS. 5A-B) HPSC apoptosis and migration as measured by FACS and Transwell migration assay at 48 hours. (FIG. 5C) BxPC3 migration in response to rhDKK3 10 μg/ml as measured by Transwell migration assay at 48 hours. (FIG. 5D) BxPC3 resistance to gemcitabine 100 μM as measured by MTS proliferation assay at 6 days. HPSC-CM, pancreatic stellate cell conditioned media, 10 μg/ml. The orthotopic co-injection BxPC3+ HPSC model of PDAC was used to test the efficacy of DKK3 mAb clones JM6-6-1 or JM8-12-1 (5 mg/kg i.p. once every 5 days). (FIG. 5E) Overall tumor progression was measured every 3-4 days by IVIS imaging. (FIG. 5F) Metastatic tumors in the peritoneal cavity after removal of the primary pancreatic tumor are shown by IVIS imaging. (FIG. 5G) Kaplan Meier survival curve showing mice treated with DKK3 mAb clone JM8-12 (right-most line), control mAb (middle line), or PBS (left-most line). (FIG. 5H) KPC mice (P48-Cre; Kras LSL-G12D;Trp53fl/fl) with either wild type DKK3 (solid lines) or deficient in DKK3 (“DKK3-KO,” dashed lines) were treated with DKK3 mAb JM6-6-1 (5 mg/kg i.p. once every 5 days), PBS or control mAb. […]
as §1

BxPC3 cells [2] = assay: BxPC3 resistance to gemcitabine, MTS proliferation assay; format: cell-based, human; details: BxPC3, gemcitabine 100 μM, HPSC-CM 10 μg/ml, 6 days
Protocol: as §2, §1

[3] = system: BxPC3 + HPSC orthotopic tumors; assay: Orthotopic co-injection BxPC3 + HPSC nude mouse model of PDAC; format: in vivo; details: 5 mg/kg i.p. once every 5 days
Protocol: HPSCs and BxPC3 cells were treated with DKK3 mAb clones JM6-6-1 and JM8-12-1 or isotype control mAb or PBS. (FIGS. 5A-B) HPSC apoptosis and migration as measured by FACS and Transwell migration assay at 48 hours. (FIG. 5C) BxPC3 migration in response to rhDKK3 10 μg/ml as measured by Transwell migration assay at 48 hours. (FIG. 5D) BxPC3 resistance to gemcitabine 100 μM as measured by MTS proliferation assay at 6 days. HPSC-CM, pancreatic stellate cell conditioned media, 10 μg/ml. The orthotopic co-injection BxPC3+ HPSC model of PDAC was used to test the efficacy of DKK3 mAb clones JM6-6-1 or JM8-12-1 (5 mg/kg i.p. once every 5 days). (FIG. 5E) Overall tumor progression was measured every 3-4 days by IVIS imaging. (FIG. 5F) Metastatic tumors in the peritoneal cavity after removal of the primary pancreatic tumor are shown by IVIS imaging. (FIG. 5G) Kaplan Meier survival curve showing mice treated with DKK3 mAb clone JM8-12 (right-most line), control mAb (middle line), or PBS (left-most line). (FIG. 5H) KPC mice (P48-Cre; Kras LSL-G12D;Trp53fl/fl) with either wild type DKK3 (solid lines) or deficient in DKK3 (“DKK3-KO,” dashed lines) were treated with DKK3 mAb JM6-6-1 (5 mg/kg i.p. once every 5 days), PBS or control mAb. Kaplan Meier survival curve is shown with hazard ratios (Log-rank test). *p<0.05, **p<0.01, ***p<0.001, ****p<0.0001 vs. control Ab.
An orthotopic nude mouse model of PDAC using BxPC3 cancer cells labeled with firefly luciferase (BxPC3-FL) co-injected with HPSCs has been previously described (Hwang et al., 2008). Mice received intrapancreatic injections of BxPC3-FL (1×10^6 per mouse) with HPSC-shControl or HPSC-shDKK3 in a tumor-to-stroma ratio of 1:0 or 1:3 in 50-μL of HBSS and tumor growth was monitored using IVIS imaging (Hwang et al., 2008). In addition, a syngeneic immunocompetent DKK3 null model was used, provided by Dr. C. Niehrs (Barrantes Idel et al., 2006), that was injected with murine PDAC cells (termed “KPC cells”) isolated from tumors arising in a GEMM of PDAC (Pdx1-Cre; Kras^LSL-G12D;Trp53^R172H/+) (Hingorani et al., 2005; Hingorani et al., 2003) and labeled with luciferase.
The efficacy of DKK3 mAb was tested in vivo using the previously described orthotopic co-implantation nude mouse model of PDAC with human PSCs mixed with luciferase-labeled BxPC3 cancer cells (1:3 tumor:PSC ratio). Mice were treated with either phosphate-buffered saline (PBS), isotype control mAb, or DKK3 mAb (clone JM6-6-1; 5 mg/kg i.p. once every 5 days) and tumor growth was followed with IVIS imaging. […] Tumors in the PBS and control mAb groups grew rapidly from day 22 onward, with an 8-fold increase in the luciferase signal.

T2 sequence (Q9QUN9 23-349 limits assumed): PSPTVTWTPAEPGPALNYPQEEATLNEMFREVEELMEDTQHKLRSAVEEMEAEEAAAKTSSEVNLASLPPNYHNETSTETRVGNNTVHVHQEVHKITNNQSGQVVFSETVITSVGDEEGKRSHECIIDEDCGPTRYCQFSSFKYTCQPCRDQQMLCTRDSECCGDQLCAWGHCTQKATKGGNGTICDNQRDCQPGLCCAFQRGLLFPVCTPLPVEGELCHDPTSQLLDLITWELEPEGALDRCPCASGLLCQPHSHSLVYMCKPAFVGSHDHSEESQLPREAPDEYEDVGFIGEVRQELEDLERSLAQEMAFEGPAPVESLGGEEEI
T1 sequence (Q9UBP4 22-350 limits assumed): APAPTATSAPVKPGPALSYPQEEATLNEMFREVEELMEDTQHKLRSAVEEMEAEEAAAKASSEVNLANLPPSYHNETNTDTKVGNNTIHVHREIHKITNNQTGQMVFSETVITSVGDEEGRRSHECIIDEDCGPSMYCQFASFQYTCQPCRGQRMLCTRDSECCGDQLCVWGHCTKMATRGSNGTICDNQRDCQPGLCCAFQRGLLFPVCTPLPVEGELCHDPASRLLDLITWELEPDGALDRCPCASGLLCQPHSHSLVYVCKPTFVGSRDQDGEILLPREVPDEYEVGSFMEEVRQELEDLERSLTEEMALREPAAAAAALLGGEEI

rhDKK3: recombinant human DKK3 (R&D)
increase in invasion vs PBS controls (Panc1 cells): > 3 fold | increase in migration vs PBS controls (Panc1 cells): ~100% | inhibition of cell proliferation compared to media alone (CD3+ T cells): 4.7-11.5 fold | induction of NF-κB promoter activity relative to PBS control (NF-κB): 33%

B1: DKK3 mAb clone JM6-6-1 (antibody, V domains shown)
VH: EVKLVESGGGLVKPGGSLKLSCAASGFTFTIEYMAWIRQTPEKRLEWVASISSGGDDIYYADNVKGRFTISRDNAKNTLYLQMSSLKSEDTAIYYCSRSLSDWGQGTTLTVSS
VL: MTQTPLSLPVSLGDQASISCRSSQSILHSNGHTYLEWYLQKPGQSPKLLIYKVSNRFSGVPDRFSGSGSGTDFTLKISRVEAEDLGVYYCFQGSHVPFTFGSGTKLEIER
notes: Mouse hybridoma mAb from A/J mice immunized with recombinant human DKK-3/His; the negative control is an IgG1 isotype control; also called anti-DKK3 mAb JM6-6-1; DKK3 antibody JM6-6-1
binding result (recombinant human DKK3): binds | binding result (recombinant mouse DKK3): binds

B2: JM8-12-1: monoclonal antibody against human DKK3; heavy chain variable SEQ ID NO: 17, light chain variable SEQ ID NO: 18 (tabled as JM8-12-2) (antibody, V domains shown)
VH: MKPSQSLSLTCTVTGYSITSDYAWNWIRQFPGNKLEWMGYISYRGSTRYNPSLKSRISITRDTSKNQLYLQLHSVTTEDTATYYCVHDGYYWVQQTLVTVSAAKTTPPSDY
VL: QDPRVDIVLTQSPASLAVSLFQRATISYRASKSVSTSGYSYMHWNQQKPGQPPRLLIYLVSNLESGVPARFSGSGSGTDFTLNIHPVEEEDAATYYCQHIRELTRSEGGPSWK
effect on DKK3-mediated induction of migration (BxPC3 cells [1]): reverse the DKK3-mediated induction of migration | effect on DKK3-mediated chemoresistance to gemcitabine (BxPC3 cells [2]): abrogated the DKK3-mediated induction of chemoresistance to gemcitabine | hazard ratio compared with PBS control group [3]: 0.26 | median survival [3]: 50 days
